Reference: PMC3885427, “NPPB and ACAN, Two Novel SHOX2 Transcription Targets Implicated in Skeletal Development” (PLoS ONE, 2014)

Tests used:
Assay in all cases: two-hybrid; S. cerevisiae Y187 cotransformed with pGBT9 (GAL4 binding domain) and pACT2 (GAL4 activation domain) fusions; β-galactosidase liquid assay with CRPG as substrate; fragments and mutants given as percent of full-length or wild-type protein; empty vectors as negative controls
Settings in all cases: partners not purified
[1] = target: T1, SHOX(117–274), yeast two-hybrid fusion (human, UniProt O15266 117-274)
T1 construct: SHOXa, human, residues 117-274; source: yeast two-hybrid fusion (S. cerevisiae Y187)
T1 sequence (O15266 117-274): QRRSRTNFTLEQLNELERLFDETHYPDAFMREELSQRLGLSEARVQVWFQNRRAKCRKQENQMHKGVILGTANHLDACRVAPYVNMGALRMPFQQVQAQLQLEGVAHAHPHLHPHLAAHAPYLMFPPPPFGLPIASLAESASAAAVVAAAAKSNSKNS

[2] = target: T2, SHOX(117–292), yeast two-hybrid fusion (human, UniProt O15266 117-292)
T2 construct: SHOXa, human, residues 117-292; source: yeast two-hybrid fusion (S. cerevisiae Y187)

[3] = target: T3, SHOX(1–211), yeast two-hybrid fusion (human, UniProt O15266 1-211)
T3 construct: SHOXa, human, residues 1-211; source: yeast two-hybrid fusion (S. cerevisiae Y187)
T3 sequence (O15266 1-211): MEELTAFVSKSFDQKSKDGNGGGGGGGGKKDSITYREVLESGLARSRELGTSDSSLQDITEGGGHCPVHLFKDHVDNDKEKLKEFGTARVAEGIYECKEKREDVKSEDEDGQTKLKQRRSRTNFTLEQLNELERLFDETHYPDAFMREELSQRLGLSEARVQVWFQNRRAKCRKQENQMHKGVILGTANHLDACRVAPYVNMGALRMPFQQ

[4] = target: T4, SHOX(178–292), yeast two-hybrid fusion (human, UniProt O15266 178-292)
T4 construct: SHOXa, human, residues 178-292; source: yeast two-hybrid fusion (S. cerevisiae Y187)
T4 sequence (looked up): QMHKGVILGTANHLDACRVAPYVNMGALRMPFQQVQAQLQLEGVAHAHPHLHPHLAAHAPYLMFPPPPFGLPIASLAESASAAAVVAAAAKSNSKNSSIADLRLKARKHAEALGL

Measured: β-galactosidase units as percent of full-length SHOX

B1: SHOX2a (called SHOX2 in the paper), full-length, yeast two-hybrid fusion (natural protein)
chain: not shown
notes: SHOX2a (short stature homeobox 2, isoform a), human; full-length cDNA NM_006884.3 made from IMAGE SHOX2 clone 4122010 by removing a 70 bp region; also called wild-type SHOX2; full-length SHOX2; source: yeast two-hybrid fusion (S. cerevisiae Y187)
< 50 % of the wildtype: [1] | [2] | [3] | [4]
